Patent US20230348603A1 (VERSEAU THERAPEUTICS, published 2023)

T1: Human VSIG4-S-His (human, UniProt Q9Y279 20-283)
T1 construct: short isoform ECD with His tag; also called hVSIG4-S; VISG4-S-His
T1 sequence: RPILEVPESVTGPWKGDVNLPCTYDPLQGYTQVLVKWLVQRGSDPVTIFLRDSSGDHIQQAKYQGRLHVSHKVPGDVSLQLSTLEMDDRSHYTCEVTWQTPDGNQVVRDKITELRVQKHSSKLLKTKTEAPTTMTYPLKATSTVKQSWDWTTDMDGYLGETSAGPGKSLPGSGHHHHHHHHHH

T2: Human VSIG4-L-His (human, UniProt Q9Y279 20-283)
T2 construct: long isoform ECD with His tag; also called hVSIG4-L
T2 sequence: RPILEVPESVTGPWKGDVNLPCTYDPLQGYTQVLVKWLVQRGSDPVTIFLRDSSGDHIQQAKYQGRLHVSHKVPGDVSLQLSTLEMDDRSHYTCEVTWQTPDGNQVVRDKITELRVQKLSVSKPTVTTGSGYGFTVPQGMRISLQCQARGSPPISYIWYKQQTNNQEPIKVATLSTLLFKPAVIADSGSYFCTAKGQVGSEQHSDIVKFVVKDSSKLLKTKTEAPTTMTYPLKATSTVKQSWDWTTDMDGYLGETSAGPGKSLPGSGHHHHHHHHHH

T3: Cynomolgus Monkey VSIG4-L-His (cynomolgus monkey)
T3 construct: ECD with His tag; also called cyVSIG4-L; cyno VSIG4-L-His
T3 chain: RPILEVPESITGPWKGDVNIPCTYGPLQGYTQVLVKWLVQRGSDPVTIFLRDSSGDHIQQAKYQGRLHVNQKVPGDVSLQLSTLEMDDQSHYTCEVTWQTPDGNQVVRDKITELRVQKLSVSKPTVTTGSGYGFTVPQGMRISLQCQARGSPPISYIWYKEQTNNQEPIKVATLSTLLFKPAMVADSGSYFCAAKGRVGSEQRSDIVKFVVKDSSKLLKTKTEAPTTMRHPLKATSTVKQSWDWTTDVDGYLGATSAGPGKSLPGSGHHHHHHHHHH

T4: Human VSIG4-L-CHO (human VSIG4 long isoform on CHO-K1 cells) (human, UniProt Q9Y279 20-399)
T4 construct: also called hVSIG4-L (flow cytometry)
T4 sequence: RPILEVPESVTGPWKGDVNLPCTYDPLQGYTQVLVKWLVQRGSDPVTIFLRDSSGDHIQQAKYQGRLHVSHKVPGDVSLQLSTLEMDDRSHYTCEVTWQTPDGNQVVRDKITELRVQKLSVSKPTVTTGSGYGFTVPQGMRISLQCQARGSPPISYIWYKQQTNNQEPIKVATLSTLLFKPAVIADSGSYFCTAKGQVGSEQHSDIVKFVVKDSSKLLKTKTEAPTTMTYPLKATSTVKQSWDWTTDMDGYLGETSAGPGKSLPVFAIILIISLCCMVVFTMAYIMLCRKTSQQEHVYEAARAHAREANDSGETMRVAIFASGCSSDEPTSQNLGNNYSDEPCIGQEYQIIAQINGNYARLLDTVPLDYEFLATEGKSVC

T5: Mouse VSIG4-His (mouse)
T5 construct: ECD with His tag; also called mVSIG4
T5 chain: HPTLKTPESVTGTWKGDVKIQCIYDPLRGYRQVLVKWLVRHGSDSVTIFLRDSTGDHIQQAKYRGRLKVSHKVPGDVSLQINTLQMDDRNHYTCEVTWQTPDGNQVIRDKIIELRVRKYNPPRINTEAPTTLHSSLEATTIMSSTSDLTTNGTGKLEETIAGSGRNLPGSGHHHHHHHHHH

B1: 16E10 mouse/human chimeric IgG4 (S228P) kappa (antibody, V domains shown)
VH: QVQLQQSGAELVRPGTSVKISCKASGYTFTNYWLGWVKQRPGHGLEWIGDIYPGGGYTNYNEKFKGKATLTADTSSSTAYMQLSSLTSEDSAVYFCAKFYYYGSSYYFDSWGQGTTLTVSS
VL: DIVLTQSPSSLSVSAGEKVTLSCKSSQSLLNSGNQENYLAWYQQKPGQPPKLLIYGASTRESGVPDRFTGSGSGTDFTLTISSVQAEDLAVYYCQNDHSYPLTFGAGTKLELKR
B2: 12A08 mouse/human chimeric IgG4 (S228P) kappa (antibody, V domains shown)
VH: EVMLVESGGGLVKPGGSLKLSCAASGFTFDDFYMYWVRQTPEKRLEWVASISDGGTYTYYPDSVKGRFTISRDNAKNTLYLQLSSLKSEDTAMYYCARGVDKYYYAMDYWGQGTSVTVSS
VL: QILLTQSPAIMSASPGEKVTITCSASSSVSYMHWFQQKPGTSPKLWIYSTSNLASGVPARFSGSGSGTSYSLTISRMEAEDAATYYCQQRSSYPLTFGAGTKLELKR
B3: 15C04 mouse/human chimeric IgG4 (S228P) kappa (antibody, V domains shown)
VH: QIQLQESGPSLVRPSQTLSLTCSVTGDSITSGYWNWIRKFPGDKLEYLGYISYSGFTYYNPSLKSRISITRDTSKNQYYLQLNSVTTEDTATYYCASSYYGSSLGFPYWGQGTLVTVSA
VL: DVVMTQTPLSLPVSLGDQASISCRSSQSLVHSNGNTYLHWYLQKPGQSPKLLIYKVSNRFSGVPDRFSGSGSGTDFTLKISRVEAEDLGVYFCSQSTHVPWTFGGGTKLEIKR

What was measured:
Human VSIG4-S-His = target: T1, Human VSIG4-S-His; assay: BLI (Octet), IgG on AHC sensor, antigen 100 nM
Experimental: (§1) The binding affinity of chimeric antibodies was determined by biolayer interferometry (BLI), using a ForteBio Octet® Red384 system. […] Biosensors were rehydrated prior to the assay in kinetics buffer for 10 minutes and then equilibrated in kinetics buffer for 60 seconds. Antibody was then immobilized for 300 seconds followed by a 120 second baseline wash in fresh kinetics buffer, 300 second analyte association, and 300 second dissociation in the same buffer wells as the baseline wash step. All assay steps occurred at 30° C. with an acquisition rate of 5.0 Hz
(§2) Processing parameters included double reference subtraction, with human IgG4 used as an isotype control for reference sensor subtraction and immobilized ligand in kinetics buffer with no analyte used for reference sample subtraction. Y-axis data was aligned to the average baseline step for the last 5 seconds and all steps were inter-step corrected to the start of the dissociation step. High frequency noise was removed using Savitzky-Golay filtering and final fitting was a 1:1 global binding model to both association and dissociation.

Human VSIG4-L-His [1] = target: T2, Human VSIG4-L-His; assay: BLI (Octet), IgG on AHC sensor, antigen 100 nM
Experimental: as §1, §2

[2] = target: T3, Cynomolgus Monkey VSIG4-L-His; assay: BLI (Octet), IgG on AHC sensor, antigen 100 nM
Experimental: as §1, §2

Human VSIG4-L-Fc [3] = target: T6, Human VSIG4-L-Fc (human); assay: BLI binning on hVSIG4-L-Fc, competitor 15C04 first;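 further: normalized to binding of second antibody without first competitor antibody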
T6 construct: also called hVSIG4-L-Fc; hVSIG4-L
Target sequence in this assay (chain, as listed by the source limits assumed): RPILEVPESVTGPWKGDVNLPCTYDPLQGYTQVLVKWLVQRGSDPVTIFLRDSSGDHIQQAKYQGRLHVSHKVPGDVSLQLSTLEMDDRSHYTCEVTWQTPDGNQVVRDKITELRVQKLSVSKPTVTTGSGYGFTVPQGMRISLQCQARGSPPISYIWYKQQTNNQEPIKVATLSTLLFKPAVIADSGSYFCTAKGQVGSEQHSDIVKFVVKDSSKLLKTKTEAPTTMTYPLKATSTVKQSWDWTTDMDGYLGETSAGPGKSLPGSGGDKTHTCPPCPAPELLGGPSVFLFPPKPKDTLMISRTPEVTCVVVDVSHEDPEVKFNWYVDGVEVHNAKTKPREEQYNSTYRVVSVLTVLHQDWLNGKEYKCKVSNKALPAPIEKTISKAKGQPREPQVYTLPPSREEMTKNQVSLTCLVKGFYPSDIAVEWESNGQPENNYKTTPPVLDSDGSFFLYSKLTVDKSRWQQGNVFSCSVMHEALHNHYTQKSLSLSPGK
Experimental: (§3) Epitopic diversity of functional antibodies was further assessed by antibody cross-blocking experiments, performed on a ForteBio Octet® Red384 system. […] All assay steps occurred at 30° C. with an acquisition rate of 5.0 Hz.
(§4) Binning results were calculated using ForteBio Data Analysis HT software. Antibody “a” and antibody “b” steps were defined, and the maximum binding calculation was averaged at the last 10% of the step duration. Once the matrix was generated, the antibody “b” binding signal in the absence of any antibody “a” was used to normalize the maximum binding of the competitor antibodies. Hierarchical clustering was set with a similarity metric of Pearson and Lingang Criteria by Mean, and the normalized maximum binding nm shift is reported in Table 9 below.

[4] = target: T4, Human VSIG4-L-CHO (human VSIG4 long …); assay: flow cytometry, CHO-K1 cells expressing hVSIG4-L
Experimental: Three-fold serial dilution of each antibody starting at 200 nM were prepared in assay buffer (0.5% of heat inactivated Fetal bovine serum with 1:1000 Ethylenediaminetetraacetic acid in PBS). […] As a control for specificity, an irrelevant antibody was used. Binding detection was assessed using a goat anti-Human IgG (Fc specific), FITC conjugated polyclonal detection antibody (Sigma Aldrich, St. Louis, MO) and by acquisition of 10,000 cells per sample. Fluorescence was measured on an Attune™ NxT (Thermo Fisher Scientific, Waltham, MA).

Human VSIG4-L-Fc [5] = target: T6, Human VSIG4-L-Fc; assay: BLI binning on hVSIG4-L-Fc, competitor 14C05 first;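 further: normalized to binding of second antibody without first competitor antibody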
Experimental: as §3, §4

Human VSIG4-L-Fc [6] = target: T6, Human VSIG4-L-Fc; assay: BLI binning on hVSIG4-L-Fc, competitor 16E03 first;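 further: normalized to binding of second antibody without first competitor antibody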
Human VSIG4-L-His [7] = target: T2, Human VSIG4-L-His; assay: SPR (FJB)
[8] = target: T3, Cynomolgus Monkey VSIG4-L-His; assay: SPR (FJB)
Human VSIG4-L-Fc [9] = target: T6, Human VSIG4-L-Fc; assay: ligand competition ELISA (FJB), blocked ligand iC3b
Human VSIG4-S-Fc = target: T7, Human VSIG4-S-Fc (human); assay: ELISA, IgG 50 nM on coated antigen;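 further: Mouse-human chimeric IgG4 antibodies incubated 1 h on plate-coated VSIG4 proteins, bound IgG detected with HRP-labelled anti-human IgG, irrelevant antibody and protein as specificity controls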
T7 construct: short isoform ECD fused to human Fc1; also called hVSIG4-S
Experimental: (§5) The binding characteristics of selected antibodies identified in the phage display selections and reformatted as mouse-human chimeric IgG4 antibodies was assessed by ELISA for their ability to bind plate-bound human VSIG4-L, human VSIG4-S, cynomolgus monkey VSIG4, and mouse VSIG4 (Table 7). Antibodies were also assessed by ELISA for specificity to human VSIG4 compared to related VSIG4 B7 family members, including human B7-H1, B7-H2, B7-H3, B7-H4, B7-DC, B7-1, and B7-2 (Table 8).
(§6) Coated microplates were blocked with dried skimmed milk at 4% in PBS. Coated proteins were then incubated with each purified antibody at a concentration of 50 nM for 1 h to allow the binding to the proteins. Binding detection was measured using a goat anti-huIgG monoclonal detection antibody, HRP conjugated (Jackson Immune Research, West Gove, PA). As a control for specificity, an irrelevant antibody and protein were used. OD at 450 nm was determined using a standard absorbance microplate reader.

Human VSIG4-L-Fc [10] = target: T6, Human VSIG4-L-Fc; assay: ELISA, IgG 50 nM on coated antigen;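 further: Mouse-human chimeric IgG4 antibodies incubated 1 h on plate-coated VSIG4 proteins, bound IgG detected with HRP-labelled anti-human IgG, irrelevant antibody and protein as specificity controls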
Experimental: as §5, §6

Mouse VSIG4-His = target: T5, Mouse VSIG4-His; assay: ELISA, IgG 50 nM on coated antigen;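 further: Mouse-human chimeric IgG4 antibodies incubated 1 h on plate-coated VSIG4 proteins, bound IgG detected with HRP-labelled anti-human IgG, irrelevant antibody and protein as specificity controls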
Experimental: as §5, §6

[11] = target: T3, Cynomolgus Monkey VSIG4-L-His; assay: ELISA, IgG 50 nM on coated antigen;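 further: Mouse-human chimeric IgG4 antibodies incubated 1 h on plate-coated VSIG4 proteins, bound IgG detected with HRP-labelled anti-human IgG, irrelevant antibody and protein as specificity controls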
Experimental: as §5, §6

[12] = target: T4, Human VSIG4-L-CHO (human VSIG4 long …); assay: flow cytometry (FJB), 200 nM mAb, huVSIG4-L CHO-K1 cells
Human VSIG4-L-Fc [13] = target: T6, Human VSIG4-L-Fc; assay: BLI binning on hVSIG4-L-Fc, competitor 14D12 first;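 further: normalized to binding of second antibody without first competitor antibody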
Experimental: as §3, §4

Human VSIG4-L-Fc [14] = target: T6, Human VSIG4-L-Fc; assay: BLI binning on hVSIG4-L-Fc, competitor 12A12 first;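 further: normalized to binding of second antibody without first competitor antibody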
Experimental: as §3, §4

[15] = target: T4, Human VSIG4-L-CHO (human VSIG4 long …); assay: flow cytometry (FJB), 200 nM mAb, huVSIG4-L CHO-K1 over parental CHO-K1
Human VSIG4-L-Fc [16] = target: T6, Human VSIG4-L-Fc; assay: BLI binning on hVSIG4-L-Fc, competitor 12A08 first;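 further: normalized to binding of second antibody without first competitor antibody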
Experimental: as §3, §4

Human VSIG4-L-Fc [17] = target: T6, Human VSIG4-L-Fc; assay: ligand blocking of iC3b, IgG
Human VSIG4-L-Fc [18] = target: T6, Human VSIG4-L-Fc; assay: ligand blocking of C3b, IgG
Human VSIG4-L-Fc [19] = target: T6, Human VSIG4-L-Fc; assay: BLI binning on hVSIG4-L-Fc, competitor 15A06 first;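 further: normalized to binding of second antibody without first competitor antibody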
Human VSIG4-L-Fc [20] = target: T6, Human VSIG4-L-Fc; assay: ligand competition ELISA (FJB), blocked ligand C3b
Human VSIG4-L-Fc [21] = target: T6, Human VSIG4-L-Fc; assay: BLI binning on hVSIG4-L-Fc, competitor 13H11 first;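 further: normalized to binding of second antibody without first competitor antibody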
Human VSIG4-L-Fc [22] = target: T6, Human VSIG4-L-Fc; assay: BLI binning on hVSIG4-L-Fc, competitor 16E10 first;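 further: normalized to binding of second antibody without first competitor antibody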
Experimental: as §3, §4

Human VSIG4-L-His [23] = target: T2, Human VSIG4-L-His; assay: BLI, IgG on AHC sensor, antigen 100 nM
[24] = target: T3, Cynomolgus Monkey VSIG4-L-His; assay: BLI, IgG on AHC sensor, antigen 100 nM
Human VSIG4-L-Fc [25] = target: T6, Human VSIG4-L-Fc; assay: BLI binning on hVSIG4-L-Fc, competitor 15C03 first;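 further: normalized to binding of second antibody without first competitor antibody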

T7 sequence (chain, as listed by the source limits assumed): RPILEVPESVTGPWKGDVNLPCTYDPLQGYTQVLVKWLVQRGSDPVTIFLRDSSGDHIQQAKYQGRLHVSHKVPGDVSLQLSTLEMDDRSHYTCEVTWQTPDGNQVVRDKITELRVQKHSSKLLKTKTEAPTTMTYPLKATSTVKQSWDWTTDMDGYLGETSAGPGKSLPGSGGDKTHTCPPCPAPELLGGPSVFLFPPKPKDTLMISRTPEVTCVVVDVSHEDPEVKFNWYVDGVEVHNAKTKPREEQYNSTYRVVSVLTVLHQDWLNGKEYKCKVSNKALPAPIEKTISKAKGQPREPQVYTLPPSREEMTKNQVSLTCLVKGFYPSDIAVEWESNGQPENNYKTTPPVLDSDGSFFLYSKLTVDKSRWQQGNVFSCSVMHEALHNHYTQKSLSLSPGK

| Binder | Kd (Human VSIG4-L-His [1]) | Kd [2] | normalized maximum binding nm shift (Human VSIG4-L-Fc [3]) | EC50 [4] | normalized maximum binding nm shift (Human VSIG4-L-Fc [5]) | normalized maximum binding nm shift (Human VSIG4-L-Fc [6]) | Kd (Human VSIG4-L-His [7]) | Kd [8] | IC50 (Human VSIG4-L-Fc [9]) | ELISA OD450 (Human VSIG4-S-Fc) | ELISA OD450 (Human VSIG4-L-Fc [10]) | ELISA OD450 (Mouse VSIG4-His) | ELISA OD450 [11] | Binding (200 nM) MFI [12] | normalized maximum binding nm shift (Human VSIG4-L-Fc [13]) | normalized maximum binding nm shift (Human VSIG4-L-Fc [14]) | Binding (200 nM) Fold-Over-Parental [15] | normalized maximum binding nm shift (Human VSIG4-L-Fc [16]) | Percent Blocking iC3b (Human VSIG4-L-Fc [17]) | Percent Blocking C3b (Human VSIG4-L-Fc [18]) | further results |
| --- | --- | --- | --- | --- | --- | --- | --- | --- | --- | --- | --- | --- | --- | --- | --- | --- | --- | --- | --- | --- | --- |
| B1 | 68.5 nM | 37.6 nM | 0.89 normalized | 1 nM | 0.74 normalized | 0.1 normalized | 66.1 nM | 1.3 nM | 3.6 nM | 2.04 OD450 | 4.44 OD450 | 0.048 OD450 | 4.5 OD450 | 14700 MFI | 0.69 normalized | 0.25 normalized | 50 fold | 0 normalized | 72% | 33% | Kd (Human VSIG4-S-His): 75.3 nM; normalized maximum binding nm shift (Human VSIG4-L-Fc [19]): 0.77 normalized; IC50 (Human VSIG4-L-Fc [20]): 0.7 nM; normalized maximum binding nm shift (Human VSIG4-L-Fc [21]): 0.65 normalized; normalized maximum binding nm shift (Human VSIG4-L-Fc [22]): 0.15 normalized; KD relative to parental chimera (Human VSIG4-L-His [23]): 1 fold; KD relative to parental chimera [24]: 1 fold; normalized maximum binding nm shift (Human VSIG4-L-Fc [25]): 0.88 normalized |
| B2 | 20.6 nM | 15.7 nM | 0.94 normalized | 6.8 nM | 0.72 normalized | 0.1 normalized | 6.7 nM | 3.9 nM | 0.4 nM | 3.37 OD450 | 4.44 OD450 | 0.056 OD450 | 4.43 OD450 | 121000 MFI | 0.7 normalized | 0.78 normalized | 357 fold | 0.1 normalized | 98% | 96% | Kd (Human VSIG4-S-His): 18.8 nM; normalized maximum binding nm shift (Human VSIG4-L-Fc [19]): 0.76 normalized; IC50 (Human VSIG4-L-Fc [20]): 1 nM; normalized maximum binding nm shift (Human VSIG4-L-Fc [21]): 0.69 normalized; normalized maximum binding nm shift (Human VSIG4-L-Fc [22]): 0.44 normalized; normalized maximum binding nm shift (Human VSIG4-L-Fc [25]): 0.89 normalized |
| B3 | 25.4 nM | 183 nM | 0.16 normalized | 8.9 nM | 0.72 normalized | 0.74 normalized | 5.4 nM | 15.6 nM | 17 nM | 3.28 OD450 | 4.43 OD450 | 0.052 OD450 | 4.53 OD450 | 53200 MFI | 0.72 normalized | 0.82 normalized | 73 fold | 0.8 normalized | 94% | 93% | normalized maximum binding nm shift (Human VSIG4-L-Fc [19]): 0.08 normalized; IC50 (Human VSIG4-L-Fc [20]): 19.7 nM; normalized maximum binding nm shift (Human VSIG4-L-Fc [21]): 0.68 normalized; normalized maximum binding nm shift (Human VSIG4-L-Fc [22]): 0.92 normalized; normalized maximum binding nm shift (Human VSIG4-L-Fc [25]): 0.81 normalized |
